The DeepSol protein solubility set

assay: soluble on expression in E. coli; label from the status in PepcDB or PDB records

Row | Sequence | soluble on expression in E. coli
1 | PAMADTIKLRIIETTDIHTNVMDYDYYKDQPSQQIGLSRAATLVKQAKSEVENSVLVDNGDLIQGSPMGDYMAAKGIQTGEVHPVYKAMNQLHYDVGNIGNHEFNYGLDFLQNTLAGANFPYINANVFDKKTGEHYFQPYLIKTHSFKDTDGEVHQVKVGYIGFVPPQIMVWDKKNLEGNVVAKDIKETAEKLIPQMKKEGADIIVAIPHSGVSTDPYKLGAENSVYYLTQVKGIDAIAFGHSHAVFPGKGFENLQGVDNNKGTINGVTAVMPGRWGSHVGVMDLVIEQKDGQWQVVEGQSEARPIFDKAAKKSLAEADQCIIRALEDDHKGTREFVNQ | not soluble
2 | PDKEYHTLHWIIMGALSCATRTVQIMTPYFIPDRSLVSALVTTALRGVEVTLVLPEKNNLPFVHWATRAYLWELIQQGIRVFYQPPPFAHTKLFIVDGLWSMIGSANLDPRSLRLNFELNLEVYDRELAGTLSRHFAVTVARSRQVSLTEMDGR | not soluble
3 | PDLTAALRDVRQQYESVAAKNLQEAEEWYKSKFADLSEAANRNNDALRQAKQESTEYRRQVQSLTCEVDALK | soluble
4 | PFLELDTNLPANRVPAGLEKRLCAAAASILGKPADRVNVTVRPGLAMALSGSTEPCAQLSISSIGVVGTAEDNRSHSAHFFEFLTKELALGQDRILIRFFPLESWQIGKIGTVMTFL | soluble
5 | PGAPSTVRISKNVDGIHLSWEPPTSPSGNILEYSAYLAIRTAQMQDNPSQLVFMRIYCGLKTSCTVTAGQLANAHIDYTSRPAIVFRISAKNEKGYGPATQIRWLQGNSK | soluble
6 | PGVGDYKGLLKWTSHNQYEKEVKKADEQYGKLYAKFADMPIEKVAKDPQAKQIAQNLFNTYCIQCHGSDAKGSKGFPNLTDSDWLWGGDPDKIHETIEKGRVATMPAWGPALGEEGVKDVAHYVMSLSKPEGQYDEERAARGQALFSGPPANCFTCHGDKGQGIQGLGPNLTDDVWLWGGTQKSIIETITNGRSSQMPAWGHFLDKDKLHIMTAYVWGLSDKDGKAPVKKAEPAPTPAPAAEPAASAPAEAAQAVSEAKPAAAEPKAEEKAAPAAKADGK | not soluble
7 | PITLVKDILSKPPITAHSNISIMEAAKILIKHNINHLPIVDEHGKLVGIITSWDIAKALAQNKKTIEEIMTRNVITAHEDEPVDHVAIKMSKYNISGVPVVDDYRRVVGIVTSEDISRLFGGKK | soluble
8 | PKAPVTGYVRFLNERREQIRTRHPDLPFPEITKMLGAEWSKLQPAEKQRYLDEAEKEKQQYLKELWAYQQSEAYKVCTE | soluble
9 | PLKEQKVINTANITTNSKLDLAEYENGLMNIAKEQFDTENHVLQLNQYIPEKLVDELVAKVKAPVLTNIIEQDYFGKQNSNELSLSGVVIGLAMSSSVSNEEALSKGTEVAGQLIEAIHKNGKYNKSPITFAIFKQESTSSLKNGTYIASATVQKNDTNLGNWNAIEEKAYSYPSDEFTQAHGEDNEKINKFAEAMKGFSPGDFIPVNAKVSYKKNQMDTLNMDIVIKYNGKTELMALTQLAAQSMLDQLPKDAKVQLQIKSENKIEAIVIKEKNSDKPFVSFL | soluble
10 | PLQFHSVHGDNIRISRDGTLARRFESFCRAITFSARPVRINERICVKFAEISNNWNGGIRFGFTSNDPVTLEGTLPKYACPDLTNRPGFWAKALHEQYCEKDNILYYYVNGAGDVIYGINNEEKGVILTGIDTRSLLWTVIDIYGNCTGIEFLDSRIYMYQ | soluble
11 | PMDDIVRIHASSGTTGKPTVVGYTRKDIEIWSELMARSFAAAGVHKGDIIHNAYGYGLFTGGLGAHYGAERLGASVIPMSGGNTKKQIMIMKDFGSTVLTCTPSYSLFMAEAAREEGVDFRQLKLHVGIFGAEPWSESMRAEIEQKLNLCAIDIYGLSEIMGPGVAIECREAKKGLHI | not soluble
12 | PPHVKFIKEKDICSYEEASDPGHFRWYPKGKLMRDLLADYVYNLVVNMGAMPVETPIMYDLGNPAIREHADKFGERQYRFRQGNKELMLRFAACFGQFMMKKDMYLLPRYLPLKLYELSTYSFRYEQRGELVGLKRLRCFTMPDMHTVCLNLEQAMEEFEKQFWECLKTGDDLNLSYSVIFRFTKDFFDEHRDWFFKIAKEYKNKYGKDVILEILPKRKHYWVGKVDIAVIDSLGRPIENPTVQIDVESAKRFDIKVHTNEGEIYPIILHCSPTGSIERVLCGLLEKAA | not soluble
13 | PQKICLICGDEASGCHYGVLTCGSCKVFFKRAMEGQHNYLCAGRNDCIVDKIRRKNCPACRLRKCCQAGMVLGGRKFK | soluble
14 | PQKIFTPSAEIVKYTKIIAMEKLYAVFTDYEHDKVSRDEAVNKIRLDTEEHLKEKFPEVDQFEIIESFNIVAKEVFRSIILNEYKRCDGRD | soluble
15 | PRKASRKPPREESSATCVLEQPGALGAQILLVQRPNSGLLAGLWEFPSVTWEPSEQLQRKALLQELQRWAGPLPATHLRHLGEVVHTFSHIKLTYQVYGLALEGQTPVTTVPPGARWLTQEEFHTAAVSTAMKKVFRVYQGQ | soluble
16 | PRLWEGQDVLARWTDGLLYLGTIKKVDSAREVCLVQFEDDSQFLVLWKDISPAAL | soluble

Row | Sequence | soluble on expression in E. coli
17 | PSIKSGTILHAWNWSFNTLKNNMKDIHDAGYTAIQTSPINQVKEGNKGDKSMGNWYWLYQPTSYQIGNRYLGSEEEFKEMCAAAEEYGVKVIVDAVINHTTSDYAAISNEIKSISNWTHGNTQIKNWSDRWDVTQNSLLGLYDWNTQNTQVQSYLKRFLERALNDGADGFRYDAAKHIELPDDGNYGSQFWPNITNTSAEFQYGEILQDSASRDAAYANYMNVTASNYGHSIRSALKNRNLSVSNISHYASDVSADKLVTWVESHDTYANDDEESTWMSDDDIRLGWAVIASRSGSTPLFFSRPDGGGNGVRFPGKTQIGDRGSALFEDQAIVAVNTFHNVMAGQPEELSNPNGNNQIFMNQRGSKGVVLANAGSSSVSINASTKLPDGSYDNKAGTGSFQVRDGKLTGTINARSVAVLYPD | soluble
18 | PSTVSHFMAFNPKNDVLNQRTIREAISKSIDAKDIAGKSVNGLFQKNVQFVTKNNQQPHDYDMKAAERLLKSEGYHKNDDGIFEKNGKPLSFNLVIQTAEFPNWKDKAEKVQRQLKQAGIKLNVKTLDSQSYYDTLWTKKDYDLIFYRTYSDALMPYNFISSVFKNNDGQPGVLADDETLTKQLDDFPSTVSKEDQQCSFDDIFKHFNQQYYGVPIAYPNETFVVSDKV | soluble
19 | PTAGADTIEYCVTHSESKALIGGKLDDPAATQQVIDAMPELISIALPYDSAPQCQYQFNALIADAVPSEERPQHYDDKLMSLVYTSGTSGLPKGAMLTYGAFSWSVQQLINHIGIQANDRLFSYLPLAHITER | not soluble
20 | PTVLAVTDEELTIRFVSPAIERVLGYDMESLVGTNWLDLVHPADTDRVLATLTGEREDDGTEYRFRNADGDWVWLETIVSSDTE | not soluble
21 | PWTQNKRNLKHLNQLKEDILNNFEDLKLKDEKIIVMLSGGKDSAVSLAVAKELGLNVHLCVHFVHKWSWDISTNEAKKLADRFNIPIIFPNVTEELAKKTQGAKGKSICRICKTIMKARMIDIAKEENAKIIMTGETALEKIAGPVFQYIRENNTNVKRKDEFELYKKMEITKVPKRYKIHFFRPLIRVGHFDVFNLQKYYNIDIKRVSE | not soluble
22 | QAMTKTLRTPEHVYLCQRLRQARLDAGLTQADLAERLDKPQSFVAKVETRERRLDVIEFAKWMAACEGLDVVSEIVATIAEGRAQA | soluble
23 | QDVIVRTAVAEDVAPIIKMRKHIKEFGSRDENEELIIRQIEKGVKRIYYIEQDQEVVAVAETSAENSFSAMITGVATSDGYRQRGFASTLLKKLCCDVLAEGKKPCLFYDNPVAGEIYHRLGFEHTGDFVMYK | not soluble
24 | QGHMRVEVFPVEGLPLIKEGDDLAELISSRVRFEDGDVLVVCSTVISKAEGRIRRLEEFNPSERAKEIAARIGKPAEFVQAVLEESEEVLLDFPFLLVKAKFGNVCVNAGIDASNVEEGSLLLPPLDPDGSAEKLRRRILELTGKRVGVIITDTNGRCFRRGVVGFAIGISGVKAMKDWIGRKDLYGRELEVTVECVADEIAAFANLLMGEGGDGIPAVVVRGLNVAGEGSMEEIYRSEEEDVIRRCLKRCLGS | soluble
25 | QIAPLFWLENTIEKVEGMRPYTPLEMAGREVYIREGCYVCHSQMIRPMRDEVERYGHYSLAAESMYDHPFQWGSKRTGPDLARVGGRYSDDWHVDHMRDPQSVVPESVMPKYGYLERTMIDGKYIGDLMAANAIVGVPYTDEMIEAAQADFAAQADPDSDYDGLLERYGDKVNVRNFDGQPGVSEADALIAYLQMLGT | not soluble
26 | QIDYRDVFIEFLTTFKGNNNQNKYIERINELVAYRKKSLIIEFSDVLSFNENLAYEIINNTKIILPILEGALYDHILQLDPTYQRDIEKVHVRIVGIPRVIELRKIRSTDIGKLITIDGILVKVTPVKERIYKATYKHIHPDCMQEFEWPEDEEMPEVLEMPTICPKCGKPGQFRLIPEKTKLIDWQKAVIQERPEEVPSGQLPRQLEIILEDDLVDSARPGDRVKVTGILDIKQDSPVKRGSRAVFDIYMKVSSIEVSQKVLDEVIISEEDEKKIKDLAKDPWIRDRIISSIAPSIYGHWELKEALALALFGGVPKVLEDTRIRGDIHILIIGDPGTAKSQMLQFISRVAPRAVYTTGKGSTAAGLTAAVVREKGTGEYYLEAGALVLADGGIAVIDEIDKMRDEDRVAIHEAMEQQTVSIAKAGIVAKLNARAAVIAAGNPKFGRYISERPVSDNINLPPTILSRFDLIFILKDQPGEQDRELANYILDVHSGKSTKNIIDIDTLRKYIAYARKYVTPKITSEAKNLITDFFVEMRKKSSETPDSPILITPRQLEALIRISEAYAKMALKAEVTREDAERAINIMRLFLESVG | soluble
27 | QKEQHSQLNQTKIAYEQRLLNDLEDMDDPLDLFLDYMIWISTSYIEVDSESGQEVLRSTMERCLIYIQDMETYRNDPRFLKIWIWYINLFLSNNFHESENTFKYMFNKGIGTKLSLFYEEFSKLLENAQFFLEAKVLLELGAENNCRPYNRLLRSLSNYEDRLREMNIVENQNSVPDSRERLKGRLIYRTAPFFIRKFLTSS | soluble
28 | QKKDTSNHFHVFVGDLSPEITTEDIKAAFAPFGRISDARVVKDMATGKSKGYGFVSFFNKWDAENAIQQMGGQWLGGRQIRTNWATRKPPAPKSTYESNTKQ | soluble
29 | QLEKELEESAARYNQLAAQSRTITWEIDVTGLFTYVSPVVESVFGYLPNELVGAMRFYEIHPTEGRERFKTSFLEMFASKTIVEEVVHPVVAVDGRTIWMSTNALPILDEHGTLVGYRGACTDIS | not soluble
30 | QLTPTFYRETCPNLFPIVFGVIFDASFTDPRIGASLMRLHFHDCFVQGCDGSVLLNNTDTIESEQDALPNINSIRGLDVVNDIKTAVENSCPDTVSCADILAIAAEIASVLGGGPGWPVPLGRRDSLTANRTLANQNLPAPFFNLTQLKASFAVQGLNTLDLVTLSGGHTFGRARCSTFINRLYNFSNTGNPDPTLNTTYLEVLRARCPQNATGDNLTNLDLSTPDQFDNRYYSNLLQLNGLLQSDQELFSTPGADTIPIVNSFSSNQNTFFSNFRVSMIKMGNIGVLTGDEGEIRLQCNFVNG | soluble
31 | QMSLEGTEKASWLGEQPQFWSKTQVLDWISYQVEKNKYDASAIDFSRCDMDGATLCNCALEELRLVFGPLGDQLHAQLRDLTSSS | soluble
